Results taken from patent publication US20080220049A1 (published 2008).

Legend:
[1] = target: T1, mouse vascular endothelial growth factor receptor-2 Fc chimera (Flk-1-Fc) (mouse, UniProt P35918 20-762); assay: radioactive equilibrium binding assay, % of input at 1 nM Flk-1-Fc
T1 construct: Purchased from R&D Systems; also called mouse VEGF-R2; not shown: Fc portion of the purchased chimera is not described
T1 sequence (P35918 20-762, change not shown): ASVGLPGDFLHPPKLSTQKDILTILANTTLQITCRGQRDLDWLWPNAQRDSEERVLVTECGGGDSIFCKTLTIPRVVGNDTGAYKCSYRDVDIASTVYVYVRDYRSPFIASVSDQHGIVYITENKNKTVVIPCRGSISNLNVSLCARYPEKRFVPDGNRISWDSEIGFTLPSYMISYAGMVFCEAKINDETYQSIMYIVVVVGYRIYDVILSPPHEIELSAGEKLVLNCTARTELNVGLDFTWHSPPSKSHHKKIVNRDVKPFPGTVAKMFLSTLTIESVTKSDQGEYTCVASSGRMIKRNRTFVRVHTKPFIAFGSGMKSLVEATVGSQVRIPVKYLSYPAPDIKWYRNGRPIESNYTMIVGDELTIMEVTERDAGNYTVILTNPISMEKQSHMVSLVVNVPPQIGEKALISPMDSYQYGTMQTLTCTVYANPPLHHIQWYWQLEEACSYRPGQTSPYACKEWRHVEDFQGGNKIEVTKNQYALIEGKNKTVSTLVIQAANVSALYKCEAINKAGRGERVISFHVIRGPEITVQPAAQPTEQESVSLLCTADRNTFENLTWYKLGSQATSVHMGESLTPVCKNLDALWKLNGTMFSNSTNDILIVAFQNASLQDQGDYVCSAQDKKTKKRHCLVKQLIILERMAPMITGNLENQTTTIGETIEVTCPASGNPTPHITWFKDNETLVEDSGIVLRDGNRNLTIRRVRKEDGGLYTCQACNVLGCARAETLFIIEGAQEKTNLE

[2] = target: T2, human vascular endothelial growth factor receptor-2 Fc chimera (KDR-Fc) (human, UniProt P35968 20-764); assay: radioactive equilibrium binding, 1 nM KDR-Fc
T2 construct: range 1-764; bought from R&D Systems; stated range 1-764 counts from the first residue of the precursor; also called human VEGF-R2-Fc; not shown: human IgG1 Fc
Protocol: (§1) To prepare ³⁵S-labeled binding proteins for analysis, mRNA was prepared as described above for RNA-protein fusion production but the linker ligation step was omitted. The mRNA was expressed using rabbit reticulocyte lysate translation kit (Ambion) in the presence of ³⁵S-labeled Met at 30° C. for 1 hour. Expressed protein was purified on M2-agarose Flag beads (Sigma) as described above. This procedure produced the encoded protein without the nucleic acid tail. In a direct binding assay, VEGF-R2-Fc fusions in concentrations ranging from 0 to 200 nM were added to a constant concentration of the purified protein (0.2 or 0.5 nM) and incubated at 30° C. for 1 hour in buffer B. The receptor-binder complexes were captured using Protein A magnetic beads for another 10 minutes at room temperature using a Kingfisher™. The beads were washed with six reaction volumes of buffer B. The protein was eluted from the beads with 100 μL of 0.1 M KOH. 50 μL of the reaction mixture and elution were dried onto a LumaPlate-96 (Packard) and the amount of ³⁵S on the plate was measured using a TopCount NXT instrument (Packard). The amount of fibronectin-based scaffold protein bound to the target was estimated as a percent of radioactivity eluted from Protein A magnetic beads compare to radioactivity in the reaction mixture. Nonspecific binding of fibronectin-based scaffold proteins to the beads was determined by measuring binding in the absence of KDR-Fc and represented less than 1-2% of the input. Specific binding was obtained through subtraction of nonspecific binding from total binding. Data was analyzed using the GraphPad Prizm software (GraphPad Software, Inc, San Diego, Calif.), fitted using a one site, non-linear binding equation.
T2 sequence (P35968 20-764 limits assumed, change not shown, form in doubt): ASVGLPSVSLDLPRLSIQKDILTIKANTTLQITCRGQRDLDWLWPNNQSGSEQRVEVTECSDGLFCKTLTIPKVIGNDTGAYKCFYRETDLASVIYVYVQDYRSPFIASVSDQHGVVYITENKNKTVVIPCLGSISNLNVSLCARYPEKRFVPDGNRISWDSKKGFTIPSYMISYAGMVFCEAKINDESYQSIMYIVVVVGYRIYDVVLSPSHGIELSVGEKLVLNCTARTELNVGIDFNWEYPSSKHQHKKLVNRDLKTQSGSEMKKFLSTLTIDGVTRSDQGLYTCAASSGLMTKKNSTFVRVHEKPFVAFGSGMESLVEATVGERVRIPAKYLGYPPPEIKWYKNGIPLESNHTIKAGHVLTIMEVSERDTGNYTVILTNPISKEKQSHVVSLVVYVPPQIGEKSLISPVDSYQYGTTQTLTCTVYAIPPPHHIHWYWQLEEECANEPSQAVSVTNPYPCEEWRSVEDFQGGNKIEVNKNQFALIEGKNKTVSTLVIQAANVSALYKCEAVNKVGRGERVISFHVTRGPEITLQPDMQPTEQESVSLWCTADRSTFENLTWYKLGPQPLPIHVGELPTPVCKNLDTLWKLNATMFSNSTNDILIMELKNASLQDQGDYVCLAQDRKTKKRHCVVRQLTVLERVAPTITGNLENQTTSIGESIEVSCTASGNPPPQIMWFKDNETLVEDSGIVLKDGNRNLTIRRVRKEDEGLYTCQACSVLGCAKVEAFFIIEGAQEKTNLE

[3] = target: T3, human vascular endothelial growth factor receptor-2 Fc chimera (KDR-Fc) (human, UniProt P35968 20-764); assay: radioactive equilibrium binding, 1 nM KDR-Fc
T3 construct: range 1-764; Bought from R&D Systems; limits 1-764 are stated for the selection target; also called human VEGFR-2; not shown: human IgG1 Fc
Protocol: as §1
T3 sequence (P35968 20-764 limits assumed, change not shown, form in doubt): as above

[4] = target: T4, mouse vascular endothelial growth factor receptor-2 Fc chimera (Flk-1-Fc) (mouse, UniProt P35918 20-762); assay: radioactive equilibrium binding, 1 nM Flk-1-Fc
T4 construct: Bought from R&D Systems; also called mouse VEGFR-2; Fc part of the bought chimera not given
Protocol: as §1
T4 sequence (P35918 20-762, change not shown): as the sequence (P35918 20-762, change not shown) above

[5] = target: T5, full-length human KDR on cells (human, UniProt P35968 20-1356); assay: flow cytometry on CHO KDR cells
T5 construct: whole, on cells; also called CHO KDR; CHO-KDR
Protocol: Binding of fibronectin-based scaffold protein to cell-surface KDR and Flk-1 was analyzed simultaneously on VEGF-R2-expressing and control cells by flow cytometry. CHO-pcDNA3 cells (control) were released from their dishes with trypsin-EDTA, washed in Dulbecco's PBS without calcium and magnesium (D-PBS⁻; Invitrogen), and stained for 30 minutes at 37° C. with 1.5 μM CMTMR (5-(and-6)-(((4-chloromethyl)benzoyl)amino)-tetramethylrhodamine) (Molecular Probes). The cells were washed in D-PBS⁻ and incubated for a further 30 minutes at 37° C., and then resuspended in blocking buffer (D-PBS⁻/10% fetal bovine serum) on ice. CHO-KDR or CHO-Flk cells were treated identically except that CMTMR was omitted. […] For cells treated with an anti-KDR mouse monoclonal antibody (Accurate Chemical, Westbury, N.Y.) or an anti-flk-1 goat polyclonal antibody (R&D Systems), the anti-His₆ step was omitted, and antibody binding was detected with the species-appropriate Alexa Fluor 488 conjugated secondary antibody (Molecular Probes). Following staining, cells were resuspended in 200 μl/well D-PBS⁻/1% FBS/1 μg/ml 7-aminoactinomycin D (7-AAD; Molecular Probes) and analyzed by flow cytometry on a FACSCalibur (Becton Dickinson, San Jose, Calif.) equipped with a […] laser. […]

T5 sequence (P35968 20-1356): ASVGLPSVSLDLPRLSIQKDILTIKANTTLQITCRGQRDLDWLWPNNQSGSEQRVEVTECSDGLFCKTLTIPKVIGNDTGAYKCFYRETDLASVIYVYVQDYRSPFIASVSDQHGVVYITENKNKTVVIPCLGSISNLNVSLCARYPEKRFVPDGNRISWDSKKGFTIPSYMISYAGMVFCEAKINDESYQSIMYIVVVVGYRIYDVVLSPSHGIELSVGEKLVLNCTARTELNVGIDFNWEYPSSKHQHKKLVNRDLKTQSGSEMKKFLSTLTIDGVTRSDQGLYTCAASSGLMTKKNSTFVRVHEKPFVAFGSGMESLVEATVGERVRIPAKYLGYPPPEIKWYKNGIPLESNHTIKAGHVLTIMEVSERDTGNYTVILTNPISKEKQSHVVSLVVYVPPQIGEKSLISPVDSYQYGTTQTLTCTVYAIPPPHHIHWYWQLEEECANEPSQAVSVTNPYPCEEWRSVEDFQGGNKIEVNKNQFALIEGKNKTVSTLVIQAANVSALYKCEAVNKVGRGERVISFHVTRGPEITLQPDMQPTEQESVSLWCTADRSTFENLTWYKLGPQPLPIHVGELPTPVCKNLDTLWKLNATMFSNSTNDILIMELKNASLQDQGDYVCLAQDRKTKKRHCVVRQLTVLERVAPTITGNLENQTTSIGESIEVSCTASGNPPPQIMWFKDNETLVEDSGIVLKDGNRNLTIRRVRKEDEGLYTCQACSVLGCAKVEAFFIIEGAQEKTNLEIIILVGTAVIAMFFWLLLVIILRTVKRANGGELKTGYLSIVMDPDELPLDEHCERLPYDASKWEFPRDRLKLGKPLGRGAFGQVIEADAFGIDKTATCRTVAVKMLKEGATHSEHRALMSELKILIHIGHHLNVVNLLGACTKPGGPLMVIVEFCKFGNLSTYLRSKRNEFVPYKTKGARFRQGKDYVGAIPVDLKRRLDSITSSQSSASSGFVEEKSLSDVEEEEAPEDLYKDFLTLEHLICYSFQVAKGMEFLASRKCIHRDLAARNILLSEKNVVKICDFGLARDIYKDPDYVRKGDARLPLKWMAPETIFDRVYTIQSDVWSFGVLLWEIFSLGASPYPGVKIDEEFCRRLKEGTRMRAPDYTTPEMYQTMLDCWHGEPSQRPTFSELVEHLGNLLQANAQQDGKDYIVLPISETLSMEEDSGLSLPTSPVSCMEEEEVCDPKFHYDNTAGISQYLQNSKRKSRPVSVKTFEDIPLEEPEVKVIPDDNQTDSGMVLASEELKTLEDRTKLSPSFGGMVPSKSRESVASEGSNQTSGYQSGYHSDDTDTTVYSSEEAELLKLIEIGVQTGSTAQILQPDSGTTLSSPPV

Binder | Binding to 1 nM KDR, % [3] [%] | Binding to 1 nM Flk-1, % [4] [%] | other results
E2 (designed binder, 10Fn3 variant, residues 1-8 deleted) EVVAATPTSLLISWRHPHFPTRYYRITYGETGGNSPVQEFTVPLQPPTATISGLKPGVDYTITGYAVTDGPNDRLLNIPISINYRT |  |  | Binding to 1 nM FLK, % [1]: 10%
2′Del F6 PR4 (designed binder) EVVAATPTSLLISWRHPHFPTRYYRITYGETGGNSPVQEFTVPLQPPTATISGLKPGVDYTITGYAVTLGWNDHELYIPISINYRT |  |  | Binding to 1 nM KDR, % [2]: 22%
3′E10 PR4 (designed binder) EVVAATPTSLLISWRHPHFPTRYYRITYGETGGNSPVQEFTVPLQPPTATISGLKPGVDYTITGYAVTAGHKDQELLTPISINYRT |  |  | Binding to 1 nM KDR, % [2]: 21%
F5 (designed binder, Del 1-8; assay tags not included) EVVAATPTSLLISWRHPHFPTRYYRITYGETGGNSPVQEFTVPLQPPTATISGLRPGVDYTITGYAVTVERDGRELNIPISINYRT | 12 | 8 | 
D9 (designed binder, Del 1-8; assay tags not included) EVVAATPTSLLISWRHPHFPTRYYRITYGETGGNSPVQEFTVPLQPPTATISGLRPGVDYTITGYAVTEERNGRVLFTPISINYRT | 31 | 40 | 
F6 (designed binder, Del 1-8; assay tags not included; Framework 4 printed as ISTNYRT) EVVAATPTSLLISWRHPHFPTRYYRITYGETGGNSPVQEFTVPLQPPTATISGLKPGVDYTITGYAVTVEQNGRVLMTPISTNYRT | 37 | 2 | 
wild type fibronectin-based scaffold protein (tenth type III domain of human fibronectin) (other, E. coli produced with His6 tag; also called WT; 10Fn3) VSDVPRDLEVVAATPTSLLISWDAPAVTVRYYRITYGETGGNSPVQEFTVPGSKSTATISGLKPGVDYTITGYAVTGRGDSPASSKPISINYRT |  |  | binding result [5]: no binding
